These results are taken from article doi:10.1101/815886 (bioRxiv, 2019).

The chains are these.
B1: human CTC1 (subunit of the purified recombinant CST complex) (natural protein)
chain: MAAGRAQVPSSEQAWLEDAQVFIQKTLCPAVKEPNVQLTPLVIDCVKTVWLSQGRNQGSTLPLSYSFVSVQDLKTHQRLPCCSHLSWSSSAYQAWAQEAGPNGNPLPREQLLLLGTLTDLSADLEQECRNGSLYVRDNTGVLSCELIDLDLSWLGHLFLFPRWSYLPPARWNSSGEGHLELWDAPVPVFPLTISPGPVTPIPVLYPESASCLLRLRNKLRGVQRNLAGSLVRLSALVKSKQKAYFILSLGRSHPAVTHVSIIVQVPAQLVWHRALRPGTAYVLTELRVSKIRGQRQHVWMTSQSSRLLLLKPECVQELELELEGPLLEADPKPLPMPSNSEDKKDPESLVRYSRLLSYSGAVTGVLNEPAGLYELDGQLGLCLAYQQFRGLRRVMRPGVCLQLQDVHLLQSVGGGTRRPVLAPCLRGAVLLQSFSRQKPGAHSSRQAYGASLYEQLVWERQLGLPLYLWATKALEELACKLCPHVLRHHQFLQHSSPGSPSLGLQLLAPTLDLLAPPGSPVRNAHNEILEEPHHCPLQKYTRLQTPSSFPTLATLKEEGQRKAWASFDPKALLPLPEASYLPSCQLNRRLAWSWLCLLPSAFCPAQVLLGVLVASSHKGCLQLRDQSGSLPCLLLAKHSQPLSDPRLIGCLVRAERFQLIVERDVRSSFPSWKELSMPGFIQKQQARVYVQFFLADALILPVPRPCLHSATPSTPQTDPTGPEGPHLGQSRLFLLCHKEALMKRNFCVPPGASPEVPKPALSFYVLGSWLGGTQRKEGTGWGLPEPQGNDDNDQKVHLIFFGSSVRWFEFLHPGQVYRLIAPGPATPMLFEKDGSSCISRRPLELAGCASCLTVQDNWTLELESSQDIQDVLDANKSLPESSLTDLLSDNFTDSLVSFSAEILSRTLCEPLVASLWMKLGNTGAMRRCVKLTVALETAECEFPPHLDVYIEDPHLPPSLGLLPGARVHFSQLEKRVSRSHNVYCCFRSSTYVQVLSFPPETTISIPLPHIYLAELLQGGQSPFQATASCHIVSVFSLQLFWVCAYCTSICRQGKCTRLGSTCPTQTAISQAIIRLLVEDGTAEAVVTCRNHHVAAALGLCPREWASLLDFVQVPGRVVLQFAGPGAQLESSARVDEPMTMFLWTLCTSPSVLRPIVLSFELERKPSKIVPLEPPRLQRFQCGELPFLTHVNPRLRLSCLSIRESEYSSSLGILASSC
B2: human STN1 (subunit of the purified recombinant CST complex) (natural protein)
chain: MQPGSSRCEEETPSLLWGLDPVFLAFAKLYIRDILDMKESRQVPGVFLYNGHPIKQVDVLGTVIGVRERDAFYSYGVDDSTGVINCICWKKLNTESVSAAPSAARELSLTSQLKKLQETIEQKTKIEIGDTIRVRGSIRTYREEREIHATTYYKVDDPVWNIQIARMLELPTIYRKVYDQPFHSSALEKEEALSNPGALDLPSLTSLLSEKAKEFLMENRVQSFYQQELEMVESLLSLANQPVIHSASSDQVNFKKDTTSKAIHSIFKNAIQLLQEKGLVFQKDDGFDNLYYVTREDKDLHRKIHRIIQQDCQKPNHMEKGCHFLHILACARLSIRPGLSEAVLQQVLELLEDQSDIVSTMEHYYTAF
B3: human TEN1 (subunit of the purified recombinant CST complex) (natural protein)
chain: MMLPKPGTYYLPWEVSAGQVPDGSTLRTFGRLCLYDMIQSRVTLMAQHGSDQHQVLVCTKLVEPFHAQVGSLYIVLGELQHQQDRGSVVKARVLTCVEGMNLPLLEQAIREQRLYKQERGGSQ

Assay in all cases: cryo-EM structure
The series “cryo-EM structure” concerns the molecule itself.
Series [1] has as its target B1.
Series [2] deals with B2.

On to B1, for which the binding result in “cryo-EM structure” is listed as “binds”.

As for B2, in series [1], the stoichiometry N (in general, a count of units in the complex or per binding partner) was 1. Take B3: the binding result in series [1] is on record as “binds”. Moreover, in series [2], the “stoichiometry N” value amounted to 1.
